Measured values reported in patent US20210221875A1 (Chugai, published 2021).
Substitutions are numbered along the chain they refer to. Each block holds one binder with its values, some of them ahead of it.

Tests used:
soluble human IL-6R [1] = biological target: T1, soluble human IL-6R (human, UniProt P08887 20-357); test: BLI (Octet HTX), molecule on Protein A sensor, hsIL-6R as analyte, 30 C
T1 construct: also called hsIL-6R; recombinant human IL6R
T1 sequence: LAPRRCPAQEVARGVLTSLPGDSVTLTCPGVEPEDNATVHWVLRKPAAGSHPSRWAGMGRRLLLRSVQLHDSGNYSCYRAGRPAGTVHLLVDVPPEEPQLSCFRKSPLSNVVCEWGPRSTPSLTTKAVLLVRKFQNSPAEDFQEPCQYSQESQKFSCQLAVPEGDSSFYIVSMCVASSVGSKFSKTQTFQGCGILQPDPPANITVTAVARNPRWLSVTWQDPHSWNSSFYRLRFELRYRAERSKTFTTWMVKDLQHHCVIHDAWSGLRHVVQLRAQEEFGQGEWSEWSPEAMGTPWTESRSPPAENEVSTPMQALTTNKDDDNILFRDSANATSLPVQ
Description: The hsIL-6R binding evaluation of each molecule was conducted using Octet HTX (Pall ForteBio Corp.).

[2] = biological target: T2, biotin-rabbit aggrecan G1-IGD-G2-3xFlag (rabbit, UniProt Q28670 17-683, biotin on the N-terminal Avi-tag (BirA co-expression)); test: SPR (Biacore T200), 37 C, pH 7.4, antibody captured, Avi RbG1G2 3Flag as analyte, 1:1 model;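 also: antibodies captured at roughly 200 RU on a CM4 or C1 chip through anti-human IgG Fc or Protein A/G, in sodium phosphate NaCl buffer with Tween 20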
T2 construct: three tandem Flag-tags at the C-terminus and Avi-tag at the N-terminus; also called biotinylated Avi-rabbit aggrecan G1-IGD-G2-3xFLAG; Avi RbG1G2 3FLAG
Description: Anti-Human IgG (Fc) antibody was immobilized onto all flow cells of a CM4 sensor chip using Human antibody capture kit (GE Healthcare). Protein A/G was immobilized onto all flow cells of a CM4 or C1 sensor chip using amine coupling kit (GE Healthcare). Antibodies and analytes were prepared in buffer (50 mM Sodium Phosphate, 150 mM NaCl, 0.02% Tween 20, 0.005% NaN3, pH 7.4 or 20 mM Sodium Phosphate, 150 mM NaCl, 0.05% Tween20, 0.005% NaN₃, pH 7.4). Each antibody was captured onto the sensor surface by Anti-Human IgG (Fc) antibody or Protein A/G. Antibody capture levels were aimed at 200 resonance unit (RU). […] Sensor surface was regenerated each cycle with 3 M MgCl₂ or 10 mM Glycine-HCl, pH 1.5.

soluble human IL-6R [3] = biological target: T1, soluble human IL-6R; test: BLI (Octet), in the same way as in Example 3
soluble human IL-6R [4] = biological target: T1, soluble human IL-6R; test: BLI (Octet), in the same way as in Example 3, 30 C or 25 C

binding result (soluble human IL-6R [1]): no binding
B1: IL6R90-G1m/VK2-28-k0MT (antibody, human IgG1, kappa, V domains shown)
VH: EVQLVESGGGLVQPGGSLRLSCAASGFTFDDYGMSWVRQAPGKALEWVSAISWNGNNTYYTESMKGRFTISRDNAKNTLYLQMNSLRPEDTAVYYCVKGSTAIVGVPPTYPDEYDYWGQGTLVTVSS
VL: not shown
notes: IgG antibody-like molecule with VHH IL6R90 in place of VH

binding result (soluble human IL-6R [1]): no binding
B2: IL6R90-G1m/VL1-40-lamL (antibody, human IgG1, lambda, V domains shown)
VH: B1 VH
VL: QSVLTQPPSVSGAPGQRVTISCTGSSSNIGAGYDVHWYQQLPGTAPKLLIYGNSNRPSGVPDRFSGSKSGTSASLAITGLQAEDEADYYCQSYDNSLNAVVFGGGTKLTVLG
notes: as for B1

binding result (soluble human IL-6R [1]): no binding
B3: IL6R90-G1m/VL1-44-lamL (antibody, human IgG1, lambda, V domains shown)
VH: B1 VH
VL: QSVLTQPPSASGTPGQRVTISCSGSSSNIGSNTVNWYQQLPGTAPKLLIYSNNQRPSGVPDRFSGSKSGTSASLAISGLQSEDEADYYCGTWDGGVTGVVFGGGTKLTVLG
notes: as for B1

binding result (soluble human IL-6R [1]): no binding
B4: IL6R90-G1m/VL2-14-lamL (antibody, human IgG1, lambda, V domains shown)
VH: B1 VH
VL: QSALTQPASVSGSPGQSITISCTGTSSDVGGYNYVSWYQQHPGKAPKLMIYEVSNRPSGVSNRFSGSKSGNTASLTISGLQAEDEADYYCSSYRSGYTLVVFGGGTKLTVLG
notes: as for B1

Kd [2]: 256 nM
koff [2]: 0.0147 s⁻¹
kon [2]: 57600 M⁻¹ s⁻¹
B5: GRA1013Hhz-SG1/GRA1013Lqz-SK2 (antibody, human IgG1, kappa)
heavy: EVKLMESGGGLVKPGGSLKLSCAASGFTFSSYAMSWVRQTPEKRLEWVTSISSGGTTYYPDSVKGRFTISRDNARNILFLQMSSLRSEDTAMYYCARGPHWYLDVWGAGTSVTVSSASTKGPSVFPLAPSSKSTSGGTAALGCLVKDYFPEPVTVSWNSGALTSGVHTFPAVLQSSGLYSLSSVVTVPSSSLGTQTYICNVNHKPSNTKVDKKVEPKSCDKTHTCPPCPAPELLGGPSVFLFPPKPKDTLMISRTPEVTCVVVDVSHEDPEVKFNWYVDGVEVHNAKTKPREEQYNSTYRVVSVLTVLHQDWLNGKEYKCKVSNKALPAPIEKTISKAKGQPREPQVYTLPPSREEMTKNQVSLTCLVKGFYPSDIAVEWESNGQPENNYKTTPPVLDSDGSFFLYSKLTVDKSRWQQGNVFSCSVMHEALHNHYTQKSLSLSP
light: DILMTQTPLSLPVSLGDQASISCRSSQSIVHSNGNTYLEWYLQKPGQSPKLLIYKVSNRFSGVPDRFSGSGSGTDFTLKISRVEAEDLGVYYCFQGSHLPLTFGAGTKLELKRTVAAPSVFIFPPSDEQLKSGTASVVCLLNNFYPREAKVQWKVDNALQSGNSQESVTEQDSKDCTYSLSSTLTLSKADYEKHKVYACEVTHQGLSSPVTKSFNRGEC
notes: full length antibody

binding result (soluble human IL-6R [3]): binds
B6: 20A11-G1m/VK1-39-k0MT (antibody, human IgG1, kappa, V domains shown)
VH: EVQLVESGGGLVQPGGSLRLSCAASGSVFKINVMAWYRQAPGKGRELVAGIISGGSTSYADSVKGRFTISRDNAKNTLYLQMNSLRPEDTAVYYCAFITTESDYDLGRRYWGQGTLVTVSS
VL: DIQMTQSPSSLSASVGDRVTITCRASQSISSYLNWYQQKPGKAPKLLIYAASSLQSGVPSRFSGSGSGTDFTLTISSLQPEDFATYYCLQFDSYPLTFGGGTKVEIKR
notes: IgG antibody-like molecule: anti-IL6R VHH 20A11 fused with human IgG1 CH1-hinge-CH2-CH3

binding result (soluble human IL-6R [3]): binds
B7: 20A11-G1m/VL2-14-lamL (antibody, human IgG1, lambda, V domains shown)
VH: B6 VH
VL: B4 VL
notes: IgG antibody-like molecule with VHH 20A11 in place of VH

binding result (soluble human IL-6R [3]): binds
B8: 20A11-G1m/VK2-28-k0MT (antibody, human IgG1, kappa, V domains shown)
VH: B6 VH
VL: not shown
notes: as for B7

binding result (soluble human IL-6R [3]): binds
B9: 20A11-G1m/VL1-40-lamL (antibody, human IgG1, lambda, V domains shown)
VH: B6 VH
VL: B2 VL
notes: as for B7

binding result (soluble human IL-6R [3]): binds
B10: 20A11-G1m/VL3-21-lamL (antibody, human IgG1, lambda, V domains shown)
VH: B6 VH
VL: SYVLTQPPSVSVAPGKTARITCGGNNIGSKSVHWYQQKPGQAPVLVIYYDSDRPSGIPERFSGSNSGNTATLTISRVEAGDEADYYCQAWDSSTDVVFGGGTKLTVLG
notes: as for B7

binding result (soluble human IL-6R [3]): binds
B11: 20A11-G1m/VL1-44-lamL (antibody, human IgG1, lambda, V domains shown)
VH: B6 VH
VL: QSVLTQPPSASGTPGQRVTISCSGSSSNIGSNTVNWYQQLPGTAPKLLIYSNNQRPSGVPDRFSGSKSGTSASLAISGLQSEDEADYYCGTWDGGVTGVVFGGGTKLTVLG
notes: as for B7

binding result (soluble human IL-6R [4]): no binding
B12: 20A11hu-G1m/VL1-40-lamL (antibody, human IgG1, lambda, V domains shown)
VH: B6 VH with Y37V, R45L, L47W
VL: B2 VL
notes: IgG antibody-like molecule with VHH 20A11hu in place of VH

binding result (soluble human IL-6R [4]): no binding
B13: 20A11hu-G1m/VK2-28-k0MT (antibody, human IgG1, kappa, V domains shown)
VH: B6 VH with Y37V, R45L, L47W
VL: not shown
notes: as for B12

binding result (soluble human IL-6R [4]): no binding
B14: 20A11hu-G1m/VK1-39-k0MT (antibody, human IgG1, kappa, V domains shown)
VH: B6 VH with Y37V, R45L, L47W
VL: B6 VL
notes: IgG antibody-like molecule

binding result (soluble human IL-6R [4]): no binding
B15: 20A11hu-G1m/VL1-44-lamL (antibody, human IgG1, lambda, V domains shown)
VH: B6 VH with Y37V, R45L, L47W
VL: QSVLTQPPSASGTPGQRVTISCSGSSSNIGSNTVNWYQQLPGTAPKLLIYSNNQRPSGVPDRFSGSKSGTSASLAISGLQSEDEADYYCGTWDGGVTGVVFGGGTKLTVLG
notes: as for B12

binding result (soluble human IL-6R [4]): no binding
B16: 20A11hu-G1m/VL2-14-lamL (antibody, human IgG1, lambda, V domains shown)
VH: B6 VH with Y37V, R45L, L47W
VL: B4 VL
notes: as for B12

Kd [2]: 13.4 nM
koff [2]: 0.000718 s⁻¹
kon [2]: 53500 M⁻¹ s⁻¹
B17: GRA0124Hc0626-SG1/GRA0124Lc0544-SK2021 (antibody, human IgG1, kappa)
heavy: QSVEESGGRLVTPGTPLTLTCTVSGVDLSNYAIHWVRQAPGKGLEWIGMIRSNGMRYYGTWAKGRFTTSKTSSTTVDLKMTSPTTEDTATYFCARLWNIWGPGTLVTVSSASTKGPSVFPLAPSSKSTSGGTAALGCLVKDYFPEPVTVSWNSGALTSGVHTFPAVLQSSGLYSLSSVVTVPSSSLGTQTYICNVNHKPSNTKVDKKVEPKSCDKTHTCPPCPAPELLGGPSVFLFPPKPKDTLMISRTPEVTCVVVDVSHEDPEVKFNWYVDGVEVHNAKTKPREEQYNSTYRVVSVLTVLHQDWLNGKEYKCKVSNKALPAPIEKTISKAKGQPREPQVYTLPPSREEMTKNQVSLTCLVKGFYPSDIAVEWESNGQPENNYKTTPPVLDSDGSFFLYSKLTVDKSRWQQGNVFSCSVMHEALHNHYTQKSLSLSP
light: AQVLTQTPSSTSVAVGGTVTINCQSSPSVYLNLLAWYQQKPGQPPKLLIYSASFLQSGVPPRFSGSGSGTQFTLTISGVQCADAATYYCAGVYSNNIYTFGGGTKVEIKETVAAPSVFIFPPSDEQLKSGTASVVCLLNNFYPREAEVQWKVDNALQSGNSQESVTEQDSKDCTYSLSSTLTLSKADYEKHKVYACEVTHQGLSSPVTKSFNRGEC
notes: the row with this full length name is used

Kd [2]: 4.04 nM
koff [2]: 0.000321 s⁻¹
kon [2]: 79400 M⁻¹ s⁻¹
B18: GRA0124Hc0626-SG1/GRA0124Lc0951-SK2 (antibody, human IgG1, kappa, V domains shown)
VH: QSVEESGGRLVTPGTPLTLTCTVSGVDLSNYAIHWVRQAPGKGLEWIGMIRSNGMRYYGTWAKGRFTTSKTSSTTVDLKMTSPTTEDTATYFCARLWNIWGPGTLVTVSS
VL: AQVLTQTPSSTSVAVGGTVTINCQSSPSVYLNLLAWYQQKPGQPPKLLIYSASFLQSDVPDRFSGSGDGDQFDLDIDGVQCADAATYYCAGVYSNNIYTFGGGTKVEIKR
notes: full length antibody

Kd [2]: 17 nM
koff [2]: 0.000883 s⁻¹
kon [2]: 51900 M⁻¹ s⁻¹
B19: GRA0124Hc0626-SG1286/GRA0124Lc0544-SK2 (antibody, human IgG1, kappa)
heavy: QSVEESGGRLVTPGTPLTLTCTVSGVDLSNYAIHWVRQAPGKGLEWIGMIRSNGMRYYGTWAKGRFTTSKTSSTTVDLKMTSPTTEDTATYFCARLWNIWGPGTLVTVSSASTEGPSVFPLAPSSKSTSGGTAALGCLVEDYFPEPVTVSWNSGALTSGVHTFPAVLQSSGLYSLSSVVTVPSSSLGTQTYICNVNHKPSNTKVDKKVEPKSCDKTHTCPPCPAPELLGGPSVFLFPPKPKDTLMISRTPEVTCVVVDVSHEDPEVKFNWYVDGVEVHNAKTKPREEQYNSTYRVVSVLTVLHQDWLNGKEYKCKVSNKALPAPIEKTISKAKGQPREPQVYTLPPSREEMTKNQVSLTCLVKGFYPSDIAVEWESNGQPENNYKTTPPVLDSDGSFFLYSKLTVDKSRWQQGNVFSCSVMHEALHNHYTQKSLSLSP
light: B17 light with E110R, E147K

Kd [2]: 15.1 nM
koff [2]: 0.00078 s⁻¹
kon [2]: 51700 M⁻¹ s⁻¹
B20: GRA0124Hc0626-SG1286/GRA0124Lc0544-SK2027 (antibody, human IgG1, kappa)
heavy: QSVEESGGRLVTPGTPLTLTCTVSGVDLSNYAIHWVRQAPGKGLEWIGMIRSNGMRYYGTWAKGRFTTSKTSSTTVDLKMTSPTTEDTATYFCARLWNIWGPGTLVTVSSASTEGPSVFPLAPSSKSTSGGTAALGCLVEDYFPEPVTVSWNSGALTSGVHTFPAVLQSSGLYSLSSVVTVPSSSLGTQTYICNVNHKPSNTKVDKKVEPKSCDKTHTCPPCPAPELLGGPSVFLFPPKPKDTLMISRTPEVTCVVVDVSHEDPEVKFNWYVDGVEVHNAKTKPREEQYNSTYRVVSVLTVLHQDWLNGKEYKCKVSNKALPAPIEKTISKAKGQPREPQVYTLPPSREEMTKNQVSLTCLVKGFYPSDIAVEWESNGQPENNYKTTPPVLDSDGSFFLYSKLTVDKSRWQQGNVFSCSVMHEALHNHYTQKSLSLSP
light: B17 light with K171E
notes: full length antibody

Kd [2]: 14.4 nM
koff [2]: 0.000757 s⁻¹
kon [2]: 52700 M⁻¹ s⁻¹
B21: GRA0124Hc0626-SG1265/GRA0124Lc0544-SK2021 (antibody, human IgG1, kappa)
heavy: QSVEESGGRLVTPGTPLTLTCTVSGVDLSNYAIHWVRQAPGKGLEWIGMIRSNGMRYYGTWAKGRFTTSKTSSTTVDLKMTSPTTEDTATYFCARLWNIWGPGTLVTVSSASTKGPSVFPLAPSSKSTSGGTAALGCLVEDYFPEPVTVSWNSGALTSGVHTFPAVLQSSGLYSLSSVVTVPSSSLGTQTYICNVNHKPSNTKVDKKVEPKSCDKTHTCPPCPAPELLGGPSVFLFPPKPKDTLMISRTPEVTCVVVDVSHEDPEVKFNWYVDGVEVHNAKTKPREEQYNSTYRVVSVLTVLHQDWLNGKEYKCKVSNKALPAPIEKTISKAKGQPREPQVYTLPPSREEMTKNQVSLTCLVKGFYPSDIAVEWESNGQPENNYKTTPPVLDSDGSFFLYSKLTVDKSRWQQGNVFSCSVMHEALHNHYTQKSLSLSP
light: B17 light
notes: the L chain name is printed with both 563 and 564 (564 stands in the row of the Fab SG1265/SK2021)

Kd [2]: 15.9 nM
koff [2]: 0.000837 s⁻¹
kon [2]: 52700 M⁻¹ s⁻¹
B22: GRA0124Hc0626-SG1265/GRA0124Lc0544-SK2 (antibody, human IgG1, kappa)
heavy: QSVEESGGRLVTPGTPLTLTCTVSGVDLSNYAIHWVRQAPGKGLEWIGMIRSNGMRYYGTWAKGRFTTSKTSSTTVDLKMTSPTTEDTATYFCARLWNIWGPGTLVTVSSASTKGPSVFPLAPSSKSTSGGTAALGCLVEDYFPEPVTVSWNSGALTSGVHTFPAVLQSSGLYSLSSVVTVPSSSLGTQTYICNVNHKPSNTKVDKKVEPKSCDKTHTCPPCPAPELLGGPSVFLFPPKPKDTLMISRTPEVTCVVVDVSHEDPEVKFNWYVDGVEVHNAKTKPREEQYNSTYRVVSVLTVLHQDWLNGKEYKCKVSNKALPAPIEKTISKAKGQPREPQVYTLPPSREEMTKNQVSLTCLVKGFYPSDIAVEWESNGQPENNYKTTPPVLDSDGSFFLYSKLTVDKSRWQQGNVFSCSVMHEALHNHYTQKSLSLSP
light: B17 light with E110R, E147K
notes: full length antibody

Kd [2]: 3.68 nM
koff [2]: 0.000267 s⁻¹
kon [2]: 72700 M⁻¹ s⁻¹
B23: GRA0124Hc1075-SG1/GRA0124Lc0952-SK2 (antibody, human IgG1, kappa, V domains shown)
VH: B18 VH with R9D, S24D
VL: B18 VL with T5D
notes: full length antibody

Kd [2]: 15.2 nM
koff [2]: 0.000786 s⁻¹
kon [2]: 51900 M⁻¹ s⁻¹
B24: GRA0124Hc0626-SG1286/GRA0124Lc0544-SK2025 (antibody, human IgG1, kappa)
heavy: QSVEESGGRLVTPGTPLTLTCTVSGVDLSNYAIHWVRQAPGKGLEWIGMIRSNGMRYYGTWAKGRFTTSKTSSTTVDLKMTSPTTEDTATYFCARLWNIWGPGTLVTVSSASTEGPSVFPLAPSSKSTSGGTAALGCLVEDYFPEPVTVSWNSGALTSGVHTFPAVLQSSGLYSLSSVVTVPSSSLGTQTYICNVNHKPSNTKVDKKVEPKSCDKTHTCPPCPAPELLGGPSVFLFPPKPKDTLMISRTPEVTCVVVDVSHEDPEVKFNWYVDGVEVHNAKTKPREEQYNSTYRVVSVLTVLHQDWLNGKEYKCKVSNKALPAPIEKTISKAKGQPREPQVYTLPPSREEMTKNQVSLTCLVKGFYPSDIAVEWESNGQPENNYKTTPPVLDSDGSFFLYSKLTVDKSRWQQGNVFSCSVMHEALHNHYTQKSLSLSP
light: B17 light with E110R, K171E

Kd [2]: 77.5 nM
koff [2]: 0.00202 s⁻¹
kon [2]: 26100 M⁻¹ s⁻¹
B25: GRA0124Hc0626-SG1/GRA0124Lc0694-SK2 (antibody, human IgG1, kappa, V domains shown)
VH: B18 VH
VL: B18 VL with F54A, D58G, D61P, D68S, D70T, D73T, D75T, D77S
notes: full length antibody

Kd [2]: 3.28 nM
koff [2]: 0.000455 s⁻¹
kon [2]: 139000 M⁻¹ s⁻¹
B26: GRA0105Hg-SG1/GRA0105Lg-SK2 (antibody, human IgG1, kappa)
heavy: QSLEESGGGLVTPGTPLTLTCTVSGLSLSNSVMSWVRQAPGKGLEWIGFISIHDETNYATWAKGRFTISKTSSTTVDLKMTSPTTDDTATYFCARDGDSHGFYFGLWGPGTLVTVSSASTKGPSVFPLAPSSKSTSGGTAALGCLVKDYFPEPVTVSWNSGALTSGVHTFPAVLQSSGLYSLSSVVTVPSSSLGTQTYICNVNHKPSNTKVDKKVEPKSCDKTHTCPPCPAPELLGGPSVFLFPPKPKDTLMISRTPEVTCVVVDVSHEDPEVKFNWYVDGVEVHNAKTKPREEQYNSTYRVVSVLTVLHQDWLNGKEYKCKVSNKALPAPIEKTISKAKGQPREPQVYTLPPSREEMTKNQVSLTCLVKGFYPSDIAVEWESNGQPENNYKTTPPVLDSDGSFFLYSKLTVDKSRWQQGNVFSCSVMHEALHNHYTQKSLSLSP
light: AQVLTQTPSPVSAAVGGTVTINCQASQSVYNKNNLAWYQQKPGQPPKLLIYDASKLASGVPSRFKGGGSGTHFTLTISGVQCDDAATYYCQGTYYSSGWYNTFGGGTKVEIKRTVAAPSVFIFPPSDEQLKSGTASVVCLLNNFYPREAKVQWKVDNALQSGNSQESVTEQDSKDCTYSLSSTLTLSKADYEKHKVYACEVTHQGLSSPVTKSFNRGEC
notes: full length antibody
